# Measurements reported in patent US20170014527A1.
# Legend:
# human Trop-2 (human) [1] = biological target: human Trop-2 (human) (UniProt P09758); experiment: cell binding on NCI-N87 cells, anti-mouse-HRP, luminescence
# human Trop-2 (human) [2] = biological target: human Trop-2 (human) (UniProt P09758); experiment: cell binding on NCI-N87 cells, Bmax against murine RS7 as reference
# human Trop-2 (human) [3] = biological target: human Trop-2 (human) (UniProt P09758); experiment: cell binding on NCI-N87 cells, 0.03 to 66 nM antibody, anti-mouse-HRP, luminescence
# human Trop-2 (human) [4] = biological target: human Trop-2 (human) (UniProt P09758); experiment: cell binding assay, cell line not stated
# human Trop-2 (human) [5] = biological target: human Trop-2 (human) (UniProt P09758); experiment: cell-based or functional assay
# Chain of human Trop-2 (human) (P09758 27-323): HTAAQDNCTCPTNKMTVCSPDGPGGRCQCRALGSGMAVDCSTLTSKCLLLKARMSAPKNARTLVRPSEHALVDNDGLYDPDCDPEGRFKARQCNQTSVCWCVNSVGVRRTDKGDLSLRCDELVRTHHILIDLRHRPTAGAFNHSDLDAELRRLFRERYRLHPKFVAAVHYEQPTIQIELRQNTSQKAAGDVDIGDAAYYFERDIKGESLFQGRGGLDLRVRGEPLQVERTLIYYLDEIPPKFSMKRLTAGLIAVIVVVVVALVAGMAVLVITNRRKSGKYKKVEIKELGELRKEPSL
maximum binding (Bmax) (relative luminescent units) (human Trop-2 (human) [1]),reduction of maximum binding (Bmax) compared to RS7 (human Trop-2 (human) [2]) [%],Kd (human Trop-2 (human) [3]) [nM],Kd (human Trop-2 (human) [4]) [nM],"ADCC, specific lysis of BxPC-3 cells by PBMCs (effector to target 100:1, antibody 33.3 nM) (human Trop-2 (human) [5]) [%]",Substance
6020,50,0.49,–,–,MAB650 murine monoclonal antibody against human Trop-2 (R&D Systems)
–,–,–,1.2,–,hRS7-CL2A-SN-38 (hRS7 IgG conjugated to SN-38 by the CL2A linker) (antibody)
8470,25,0.52,–,–,162-46.2 murine monoclonal antibody against human Trop-2

# The remaining lines, values behind:
Substance,maximum binding (Bmax) (relative luminescent units) (human Trop-2 (human) [1]),reduction of maximum binding (Bmax) compared to RS7 (human Trop-2 (human) [2]) [%],Kd (human Trop-2 (human) [3]) [nM],Kd (human Trop-2 (human) [4]) [nM],"ADCC, specific lysis of BxPC-3 cells by PBMCs (effector to target 100:1, antibody 33.3 nM) (human Trop-2 (human) [5]) [%]"
"humanized RS7 (hRS7) anti-Trop-2 antibody, unconjugated IgG",–,–,–,–,8.5
hRS7-CL2-SN-38 (hRS7 IgG conjugated to SN-38 by the CL2 linker) (antibody),–,–,–,1.2,–
